Results: article PMC9750192 (The Journal of Cell Biology, 2022)

Target: VASH2 (Cys158Ala), the VASH2 chain of the cryo-EM sample (human, UniProt Q86V25 1-355, Cys158 to alanine)
Test: cryo-EM structure

VASH2 (Cys158Ala), the VASH2 chain of the cryo-EM sample, sequence (Q86V25 whole entry C158A): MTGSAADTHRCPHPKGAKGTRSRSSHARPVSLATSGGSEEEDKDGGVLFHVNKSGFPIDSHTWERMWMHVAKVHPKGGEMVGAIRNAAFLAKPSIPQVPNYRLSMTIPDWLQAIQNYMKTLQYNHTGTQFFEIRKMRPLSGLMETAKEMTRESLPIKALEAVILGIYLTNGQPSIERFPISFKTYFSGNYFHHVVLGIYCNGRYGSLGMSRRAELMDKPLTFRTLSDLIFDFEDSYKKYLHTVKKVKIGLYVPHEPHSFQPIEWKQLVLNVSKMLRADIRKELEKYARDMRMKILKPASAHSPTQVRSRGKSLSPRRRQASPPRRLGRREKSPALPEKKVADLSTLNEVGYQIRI

binding result: binds
B1: SVBP with a 6His tag, the SVBP chain of the cryo-EM sample (natural protein, human, UniProt Q8N300 1-66, looked up)
chain: MDPPARKEKTKVKESVSRVEKAKQKSAQQELKQRQRAEIYALNRVMTELEQQQFDEFCKQMQPPGE
